Assays:
mature GDF8 = target: T1, mature GDF8 (human, UniProt O14793 267-375); test: immunoprecipitation from 293T conditioned medium, western blot
T1 construct: also called myostatin; mstn
T1 sequence: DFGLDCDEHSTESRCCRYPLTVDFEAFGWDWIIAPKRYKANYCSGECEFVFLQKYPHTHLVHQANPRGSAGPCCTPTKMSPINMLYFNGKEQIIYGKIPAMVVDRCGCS
Procedure: An immunoprecipitation study was conducted to test the binding of myostatin antibodies to mature GDF8 and mature GDF8/propeptide complex. 293T cells were transfected with GDF-8 expression construct. Conditioned media was harvested 7 days after transfection, which contained mature GDF8 and latent complex. 100 μl conditioned media was incubated with 10 μg myostatin antibodies for 16 hours at 4° C. Protein A Dynabeads (Dynal, Norway) were added and incubated for 90 minutes at 4° C. The immunoprecipitate was collected using MPC-E magnetic concentrator (Dynal, Norway), and washed four times with PBS. […] Western blotting was performed using Odyssey infrared imaging system (Li-Cor). Mature GDF8 and unprocessed GDF8 were detected using goat anti-myostatin antibody (R&D systems, Cat# AF788). Rabbit anti-propeptide polyclonal antibody (made in-house) was used to detect both propeptide and unprocessed GDF8. […] No other antibodies immunoprecipitated mature GDF8, propeptide, or unprocessed GDF8. Lane 4 is the 1/10 medium loading control, and lane 7 is immunoprecipitation control with medium only.

peptide 5 = target: T2, peptide 5 (human); test: peptide ELISA
T2 construct: also called peptide 5 of mature GDF8
T2 peptide: CCTPTKMSPINMLYFNGK
Procedure: (§1) Eleven peptides were generated from mature GDF8 to test and localize antibody binding (See FIG. 6). Peptide ELISA was done on glutaraldehyde coated ELISA plates and on uncoated ELISA plates (NUNC-Immuno™ plate MaxiSorp™ surface, Nalge Nunc International, Cat. No. 439454). Glutaraldehyde coated plates were prepared by mixing 250 μl glutaraldehyde (50% w/v) with 50 ml deionized water and adding 200 μl of the solution into each well. Plates were incubated for at least 1 hour at room temperature. The glutaraldehyde was shaken out of the plate and smashed upside down on paper towels to remove all the liquid prior to use.
(§2) ELISA plates were coated with peptide at 1.0 μg/well/50 μl (in Sodium bicarbonate buffer, pH 9.6) for at least 4 hours, and then blocked with 200 μl blocker (1%BSA, 1%Ethanolamine pH 7.4) for minimum 4 hours. Plates were washed with PBST three times with 200 μl/well. 50 μl antibody (1 μg/ml in PBST, Phosphate-buffered saline (PBS) with 0.05% Tween-20) sample was added to the wells for 1 hour. Plates were then washed with PBST three times. 50 μl anti-human IgG-horseradish peroxidase(HRP) (Pierce, Cat# 31420) diluted in PBST is added for another hour. The wells were washed again with TBST three times, and then with deionized water twice. 50 μl ABTS (MOSS) was added for 5-20 minutes, and the signal was detected at 405 nm in a colormetric plate reader.

peptide 1 = target: T3, peptide 1 (human); test: peptide ELISA
T3 construct: also called peptide 1 of mature GDF8
T3 peptide: DFGLDCDEHSTESRCCRY
Procedure: as §1, §2

[1] = target: T4, mature GDF8 from mouse serum (mouse, UniProt O08689 268-376); test: immunoprecipitation from mouse serum, western blot
T4 construct: mature; also called mouse serum mature GDF8
T4 sequence (looked up): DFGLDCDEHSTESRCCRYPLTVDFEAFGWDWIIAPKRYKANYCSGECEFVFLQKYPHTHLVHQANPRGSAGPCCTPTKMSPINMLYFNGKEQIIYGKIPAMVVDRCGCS
Procedure: An immunoprecipitation study was conducted to test the binding of myostatin antibodies to mature GDF8 from mouse serum. […] mouse serum (Rockland, Cat ## D208-00) was incubated with 20 μg myostatin antibodies for 16 hours at 4° C. Protein A Dynalbeads were added and incubated for 90 minutes at 4° C. The immunoprecipitate was collected using MPC-E magnetic concentrator (Dynal, Norway), and washed four times with PBS. […] Western blotting was performed using Odyssey Infrared imaging system (Li-Cor). Mature GDF8 was detected using biotinylated goat anti-myostatin antibody (R&D systems, Cat# BAF788). […] It is known that mature GDF8 in the serum binds to many inhibitory proteins such as propeptide, FLRG, and GASAP1 (Hill et al. (2002) The myostatin propeptide and the follistatin-related gene are inhibitory binding proteins of myostatin in normal serum. J. Biol. Chem. 277: 40735-40741. Hill et al. (2003) Regulation of myostatin in vivo by growth and differentiation factor-associated serum protein-1: a novel protein with protease inhibitor and follistatin domains. Mol. Endocrin. 17(6): 1144-1154). […] Such non-competitive neutralizing antibodies would be advantageous in vivo.

Measured: binding result

B1: 2-112-1 (antibody, V domains shown)
VH: EVQLLESGGGLIQPGGSLRLSCAASGFTFSSFAMSWVRQAPGKGLEWVSTISGSGGYTFYADSVKGRFTISRDNSKNTLYLQMNSLRAEDTAVYYCAKDGRYNWNYGAFDIWGQGTMVTVSS
VL: EIVMTQSPATLSVSPGERATLSCRASQSVSSNLAWYQQKPGQAPRLLIYGASTRATGFPARFSGSGSGTEFTLTISSLQSEDFAIYYCQQYNNWPLTFGGGTKVEIKR
notes: Full-length deduced chains
binds: all assays above

B2: 2-43-1 (antibody, V domains shown)
VH: EVQLLESGGGLVQPGGSLRLSCAASGFTFSSYAMSWVRQAPGKGLEWVSAISGSGGSTFYADSVTGRFTISRDNSKNTLFLQLNSLRAEDTAVYHCAKDGRFNWNYGASDIWGQGTMVTVSS
VL: EIVMTQSPATLSVSPGERATLSCRTSQSVSSNLAWYQQKPGQAPRLLIYGASTRATGIPARFSGSGSGTEFTLTISSLQSEDFAVYYCQQYNNWPLTFGGGTKVEIKR
notes: Full-length deduced chains
binds: all assays above

B3: 2-177-1 (antibody, V domains shown)
VH: EVQLLESGGGLIQPGGSLRLSCAASGFTFSSFAMSWVRQAPGKGLEWVSTISGSGGSTYYADFVKGRFTISRDNSKNTLYLQMNSLRAEDTAVYYCAKDGRYNWNYGAFDIWGQGTMVTVSS
VL: EIVMTQSPATLSVSPGERATLSCRASQSVRSNLAWFQQKPGQAPRLLIYGASTRATGIPARFSGSGSGTEFTLTISSLQSEDFAVYYCQQYNNWPLTFGGGTKVEIKR
notes: Full-length deduced chains
binds: all assays above

From patent publication US20060263354A1 (Amgen, published 2006)
